Data as given in FireProtDB (doi:10.1016/j.bbapap.2007.05.016).
“And” between values parts separate entries of the source, which are not always exact repeats. Equal entries are not always repeated.

B1: Chitosanase, P33665 (parent)
chain: MHSQHRTARIALAVVLTAIPASLATAGVGYASTQASTAVKAGAGLDDPHKKEIAMELVSSAENSSLDWKAQYKYIEDIGDGRGYTGGIIGFCSGTGDMLELVQHYTDLEPGNILAKYLPALKKVNGSASHSGLGTPFTKDWATAAKDTVFQQAQNDERDRVYFDPAVSQAKADGLRALGQFAYYDAIVMHGPGNDPTSFGGIRKTAMKKARTPAQGGDETTYLNAFLDARKAAMLTEAAHDDTSRVDTEQRVFLKAGNLDLNPPLKWKTYGDPYVINS

Variants of: B1
Conditions: Streptomyces sp. (strain N174), pH 4.5, Thermal, Fluorescence, reversible: No, structure 1CHK, whole UniProt chain shown

Variant | Tm (Sodium acetate 50 mM) [°C] | change of melting temperature, mutant - wild type (higher = more stable) (Sodium acetate 50 mM) [°C] | change of melting temperature, mutant - wild type (higher = more stable) (Sodium acetate 100 mM)
MHSQHRTARIALAVVLTAIPASLATAGVGYASTQASTAVKAGAGLDDPHKKEIAMELVSSAENSSLDWKAQYKYIEDIGDGRGYTGGIIGFCSGTGDMLELVQHYTDLEPGNILAKYLPALKKVNGSASHSGLGTPFTKDWATLAKDTVFQQAQNDERDRVYFDPAVSQAKADGLRALGQFAYYDAIVMHGPGNDPTSFGGIRKTAMKKARTPAQGGDETTYLNAFLDARKAAMLTEAAHDDTSRVDTEQRVFLKAGNLDLNPPLKWKTYGDPYVINS [A144L] | 48 | -5.5 | -5.3 °C and -6.2 °C and -7 °C
MHSQHRTARIALAVVLTAIPASLATAGVGYASTQASTAVKAGAGLDDPHKKEIAMELVSSAENSSLDWKAQYKYIEDIGDGRGYTGGIIGFCSGTGDMLELVQHYTDLEPGNILAKYLPALKKVNGSASHSGLGTPFTKDWATAAKDTVFQQAQNDERDRVYFDPAVSQAKADGLRALGQFAYYDAIVMHGPGNDPTSFGGIRRTAMKKARTPAQGGDETTYLNAFLDARKAAMLTEAAHDDTSRVDTEQRVFLKAGNLDLNPPLKWKTYGDPYVINS [K204R] |  |  | -1 °C and -0.2 °C and -0.9 °C
